Experimental data reported in patent US20190029960A1, “Therapeutic Nanoparticles Having EGFR Ligands and Methods of Making and Using Same” (Pfizer Inc., priority 2016, published 2019).
*1 amine or outer side, *2 acyl side, *3 side chain or, on linkers, in order; H or OH if unused. Where a SMILES comes first, the peptide text is derived from it. Bridges are numbered along the chain shown (N, C = ends). Primed or numbered codes have the meaning given here. Where no end group is shown, it is not given here. Side-chain parts run from the residue outwards. [ ]: non-standard residue; d: D form. The star is where a group is joined. Trp(5-OMe) = COc1ccc2[nH]cc(C[C@H](N)C(=O)O)c2c1; DBCO = C1#Cc2ccccc2N(*)Cc2ccccc21; Igl = N[C@H](C(=O)O)C1Cc2ccccc2C1; PEG5 = NCCOCCOCCOCCOCCOCCC(=O)O; Pen = CC(C)(S)[C@H](N)C(=O)O; Suc = O=C(CCC(=O)[*:2])[*:1]; DBCO′ = dibenzocyclooctyne; Orn = NCCC[C@H](N)C(=O)O; Pra = C#CC[C@H](N)C(=O)O; Dap = NC[C@H](N)C(=O)O

Experiments:
recombinant human EGFR = target: T1, recombinant human EGFR (Homo sapiens, UniProt P00533); test: P2 competition ELISA (P2-Biotin dimer tracer, 50 nM EGF); format: binding
T1 construct: Fc; purchased R&D Systems
Protocol: Plates were blocked for 2 h with 2% BSA in PBS at RT. […] Plates were washed three times with PBS containing 0.05% Tween-20 (PBS-T) and then incubated with a 1:10,000 dilution of streptavidin-HRP (Thermo Fisher Scientific) diluted in assay buffer for 90 min at RT. Plates were washed an additional three times with PBS-T, and then incubated with TMB substrate (BioFx) for 15 min at RT. Reactions were stopped with stop solution (BioFx) and absorbance was read at 450 nm in a microplate reader (SpectraMax M5e, Molecular Devices).

rhEGFR-Fc = target: T2, rhEGFR-Fc (Homo sapiens, UniProt P00533); test: SPR nanoparticle binding, without EGF; conditions: 1 mg/mL; for nanoparticle binding: FIG. 9C
T2 construct: purchased R&D Systems 344-ER-050
Protocol: (§1) Surface plasmon resonance (SPR) binding studies were carried out on a Biacore T200 instrument (GE Healthcare). Approximately 10,000 RU of anti-Fc antibody (GE Healthcare, Cat #BR100839) was immobilized via amine coupling on each of flow cells 1 and 2 of a CM5 dextran-coated gold sensor chip (GE Healthcare, Cat #BR100530). Fc tagged recombinant human EGFR (rhEGFR-Fc, R&D systems, Cat #344-ER-050) was reconstituted at 10 μg/mL in PBS and captured on flow cell 2. The contact time and resulting amount of rhEGFR-Fc capture was varied based on the nature of the analyte, namely whether it was a peptide or nanoparticle.
Nanoparticle binding assays were carried out in 10 mM HBS-EP+ buffer (GE Healthcare, Cat #BR100669) at 25° C. Nanoparticles were injected over the rh EGFR-Fc surface for 60 s, followed by dissociation for 60 s and regeneration with a 10 s pulse of 3M MgCl2. A fresh rhEGFR-Fc surface was generated for each concentration of each nanoparticle tested. Nanoparticle sensograms could not be fit accurately to the 1:1 Langmuir kinetic model due to the multivalent nature of the binding interaction between nanoparticle and target. Instead, nanoparticle binding data was presented as a plot of binding response vs. concentration at a single time point after the injection end.

[1] = target: T3, Fc tagged recombinant human EGFR (rhEGFR-Fc) (Homo sapiens, UniProt P00533); format: binding; conditions: for Result: Table 14, relative affinity compared to KD of parent P2 (FIG. 16); for KD (μM): Table 11, P2 Ala scan; for Relative Affinity: Table 11, relative to the KD of parent P2
T3 construct: purchased R&D Systems 344-ER-050
Protocol: as §1, with “Fc tagged recombinant human EGFR (rhEGFR-Fc, R&D systems, Cat #344-ER-050) was reconstituted at 10 μg/mL in PBS and captured on flow cell 2.” left out
Peptide binding assays were carried out in 10 mM PBS buffer supplemented with 0.05% surfactant P20 and 5% DMSO by volume, at 25° C. Peptides were injected over the rhEGFR-Fc surface for 60 s, followed by dissociation (buffer injection) for 60 s and regeneration with a 10 s pulse of 3M MgCl2. A fresh rhEGFR-Fc surface was generated for each concentration of each peptide tested. Peptide binding data was analyzed by fitting to a 1:1 Langmuir kinetic model to obtain the on-rate (ka), off-rate (kd) and/or equilibrium binding constant (KD) of the interaction.

COc1ccc2[nH]cc(C[C@@H]3NC(=O)[C@H](C(C)C)NC(=O)[C@H](CCC(=O)O)NC(=O)[C@H](C4Cc5ccccc5C4)NC(=O)[C@H]([C@@H](C)O)NC(=O)[C@@H](NC(=O)[C@H](C)NC(=O)[C@H](CC(=O)O)NC(C)=O)C(C)(C)SSC(C)(C)[C@@H](C(=O)N[C@@H](CC(C)C)C(=O)N[C@@H](CCC(N)=O)C(=O)NCC(=O)NCC(=O)N[C@@H](CCCCNC(=O)CCOCCOCCOCCOCCOCCNC(=O)CCC(=O)N4Cc5ccccc5C#Cc5ccccc54)C(N)=O)NC(=O)[C@H](CCC(=O)O)NC(=O)[C@H](CCCNC(=N)N)NC(=O)CNC3=O)c2c1 [P2-2/55/102, Ac-DAPenT(2Ind)GEV(5MeO)WGREPenLQGGK(DBCO)-CONH2] (Ac-DA[Pen]T[Igl]EV[Trp(5-OMe)]GRE[Pen]LQGGK([PEG5-Suc-DBCO])-NH2; disulfide 3-12)
IC50 (recombinant human EGFR): 609 nM

COc1ccc2[nH]cc(C[C@@H]3NC(=O)[C@H](C(C)C)NC(=O)[C@H](CCC(=O)O)NC(=O)[C@H](C4Cc5ccccc5C4)NC(=O)[C@H]([C@@H](C)O)NC(=O)[C@@H](NC(=O)[C@@H]4CCCN4C(=O)[C@H](CC(=O)O)NC(C)=O)C(C)(C)SSC(C)(C)[C@@H](C(=O)N[C@@H](CC(C)C)C(=O)N[C@@H](CCC(N)=O)C(=O)NCC(=O)NCC(=O)N[C@@H](CCCCNC(=O)CCOCCOCCOCCOCCOCCNC(=O)CCC(=O)N4Cc5ccccc5C#Cc5ccccc54)C(N)=O)NC(=O)[C@H](CCC(=O)O)NC(=O)[C@H](CCCNC(=N)N)NC(=O)CNC3=O)c2c1 [P2-55/102, Ac-DPPenT(2Ind)GEV(5MeO)WGREPenLQGGK(DBCO)-CONH2] (Ac-DP[Pen]T[Igl]EV[Trp(5-OMe)]GRE[Pen]LQGGK([PEG5-Suc-DBCO])-NH2; disulfide 3-12)
IC50 (recombinant human EGFR): 829 nM

Ac-SECFPLAPDWLSCILGGK(DBCO)-CONH2 (Ac-SECFPLAPDWLSCILGGK(DBCO′)-NH2; disulfide 3-13 (inferred)) [Peptide P1]
nanoparticle binding signal (rhEGFR-Fc; 5% and 10% ligand density, FIG. 8B): comparable to EGF-NP | nanoparticle binding (rhEGFR-Fc; 5% ligand density): minimal binding | nanoparticle binding (rhEGFR-Fc; 10% ligand density): more robust binding

H2N-GDP-Orn-TWEVWGREDLQ-GG-Par-G-CONH2 (H-GDP[Orn]TWEVWGREDLQGG[Pra]G-NH2; lactam 4-13; SMILES C#CC[C@H](NC(=O)CNC(=O)CNC(=O)[C@H](CCC(N)=O)NC(=O)[C@H](CC(C)C)NC(=O)[C@@H]1CC(=O)NCCC[C@H](NC(=O)[C@@H]2CCCN2C(=O)[C@H](CC(=O)O)NC(=O)CN)C(=O)N[C@@H]([C@@H](C)O)C(=O)N[C@@H](Cc2c[nH]c3ccccc23)C(=O)N[C@@H](CCC(=O)O)C(=O)N[C@@H](C(C)C)C(=O)N[C@@H](Cc2c[nH]c3ccccc23)C(=O)NCC(=O)N[C@@H](CCCNC(=N)N)C(=O)N[C@@H](CCC(=O)O)C(=O)N1)C(=O)NCC(N)=O) [Peptide P2-58]
Result [1]: No binding

H2N-GDP-Orn-TWEVWGREELQ-GG-Par-G-CONH2 (H-GDP[Orn]TWEVWGREELQGG[Pra]G-NH2; lactam 4-13; SMILES C#CC[C@H](NC(=O)CNC(=O)CNC(=O)[C@H](CCC(N)=O)NC(=O)[C@H](CC(C)C)NC(=O)[C@@H]1CCC(=O)NCCC[C@H](NC(=O)[C@@H]2CCCN2C(=O)[C@H](CC(=O)O)NC(=O)CN)C(=O)N[C@@H]([C@@H](C)O)C(=O)N[C@@H](Cc2c[nH]c3ccccc23)C(=O)N[C@@H](CCC(=O)O)C(=O)N[C@@H](C(C)C)C(=O)N[C@@H](Cc2c[nH]c3ccccc23)C(=O)NCC(=O)N[C@@H](CCCNC(=N)N)C(=O)N[C@@H](CCC(=O)O)C(=O)N1)C(=O)NCC(N)=O) [Peptide P2-61]
Result [1]: No binding

H2N-GDPDTWEVWGRE-Dap-LQ-GG-Par-G-CONH2 (H-GDPDTWEVWGRE[Dap]LQGG[Pra]G-NH2; lactam 4-13) [Peptide P2-66]
Result [1]: No binding

H2N-GDPDTWEVWGRE-Orn-LQ-GG-Par-G-CONH2 (H-GDPDTWEVWGRE[Orn]LQGG[Pra]G-NH2; lactam 4-13; SMILES C#CC[C@H](NC(=O)CNC(=O)CNC(=O)[C@H](CCC(N)=O)NC(=O)[C@H](CC(C)C)NC(=O)[C@@H]1CCCNC(=O)C[C@H](NC(=O)[C@@H]2CCCN2C(=O)[C@H](CC(=O)O)NC(=O)CN)C(=O)N[C@@H]([C@@H](C)O)C(=O)N[C@@H](Cc2c[nH]c3ccccc23)C(=O)N[C@@H](CCC(=O)O)C(=O)N[C@@H](C(C)C)C(=O)N[C@@H](Cc2c[nH]c3ccccc23)C(=O)NCC(=O)N[C@@H](CCCNC(=N)N)C(=O)N[C@@H](CCC(=O)O)C(=O)N1)C(=O)NCC(N)=O) [Peptide P2-65]
Result [1]: No binding

H2N-GDPDTWEVWGREKLQ-GG-Par-G-CONH2 (H-GDPDTWEVWGREKLQGG[Pra]G-NH2; lactam 4-13; SMILES C#CC[C@H](NC(=O)CNC(=O)CNC(=O)[C@H](CCC(N)=O)NC(=O)[C@H](CC(C)C)NC(=O)[C@@H]1CCCCNC(=O)C[C@H](NC(=O)[C@@H]2CCCN2C(=O)[C@H](CC(=O)O)NC(=O)CN)C(=O)N[C@@H]([C@@H](C)O)C(=O)N[C@@H](Cc2c[nH]c3ccccc23)C(=O)N[C@@H](CCC(=O)O)C(=O)N[C@@H](C(C)C)C(=O)N[C@@H](Cc2c[nH]c3ccccc23)C(=O)NCC(=O)N[C@@H](CCCNC(=N)N)C(=O)N[C@@H](CCC(=O)O)C(=O)N1)C(=O)NCC(N)=O) [Peptide P2-64]
Result [1]: No binding

H2N-GDPETWEVWGRE-Dap-LQ-GG-Par-G-CONH2 (H-GDPETWEVWGRE[Dap]LQGG[Pra]G-NH2; lactam 4-13) [Peptide P2-69]
Result [1]: No binding

H2N-GDPETWEVWGRE-Orn-LQ-GG-Par-G-CONH2 (H-GDPETWEVWGRE[Orn]LQGG[Pra]G-NH2; lactam 4-13; SMILES C#CC[C@H](NC(=O)CNC(=O)CNC(=O)[C@H](CCC(N)=O)NC(=O)[C@H](CC(C)C)NC(=O)[C@@H]1CCCNC(=O)CC[C@H](NC(=O)[C@@H]2CCCN2C(=O)[C@H](CC(=O)O)NC(=O)CN)C(=O)N[C@@H]([C@@H](C)O)C(=O)N[C@@H](Cc2c[nH]c3ccccc23)C(=O)N[C@@H](CCC(=O)O)C(=O)N[C@@H](C(C)C)C(=O)N[C@@H](Cc2c[nH]c3ccccc23)C(=O)NCC(=O)N[C@@H](CCCNC(=N)N)C(=O)N[C@@H](CCC(=O)O)C(=O)N1)C(=O)NCC(N)=O) [Peptide P2-68]
Result [1]: No binding

H2N-GDPKTWEVWGREELQ-GG-Par-G-CONH2 (H-GDPKTWEVWGREELQGG[Pra]G-NH2; lactam 4-13; SMILES C#CC[C@H](NC(=O)CNC(=O)CNC(=O)[C@H](CCC(N)=O)NC(=O)[C@H](CC(C)C)NC(=O)[C@@H]1CCC(=O)NCCCC[C@H](NC(=O)[C@@H]2CCCN2C(=O)[C@H](CC(=O)O)NC(=O)CN)C(=O)N[C@@H]([C@@H](C)O)C(=O)N[C@@H](Cc2c[nH]c3ccccc23)C(=O)N[C@@H](CCC(=O)O)C(=O)N[C@@H](C(C)C)C(=O)N[C@@H](Cc2c[nH]c3ccccc23)C(=O)NCC(=O)N[C@@H](CCCNC(=N)N)C(=O)N[C@@H](CCC(=O)O)C(=O)N1)C(=O)NCC(N)=O) [Peptide P2-60]
Result [1]: No binding

P2-3: P2 alanine scan analog, alanine at position 3 (Ac-DPATWEVWGRECLQ-NH2) [Peptide P2-3]
KD (μM) [1]: nb | Relative Affinity [1]: nb

P2-8: P2 alanine scan analog, alanine at position 8 (DPCTWEVAGRECLQ; disulfide 3-12 (inferred); not fully specified (N-terminus, C-terminus)) [Peptide P2-8]
KD (μM) [1]: nb | Relative Affinity [1]: nb

P2-12: P2 alanine scan analog, alanine at position 12 (Ac-DPCTWEVWGREALQ-NH2) [Peptide P2-12]
KD (μM) [1]: nb | Relative Affinity [1]: nb
